Read-outs that look alike come from different tables or passages of the source.
What was measured:
[1] = target: GPR3-BRIL fusion protein (UniProt P46089); assay: cryo-EM structure
[2] = target: GPR3-BRIL fusion protein (UniProt P46089); assay: cryo-EM structure; remark: listed apart in the source

Substance: GPR3-BRIL fusion protein (from UniProt P46089 1-222; P46089 240-330) (receptor)
- stoichiometry N [1]: 2
- stoichiometry N [2]: 2
